In assay [1] the target is T1, human amyloid beta fragment 1-10 (human, UniProt P05067 672-681).
T1 construct: range 1-10; also called human Aβ 1-10
T1 peptide (looked up): DAEFRHDSGY
Briefly: BIAcore, single concentration of peptide.
Description: (§1) All dilutions were made with HEPES buffered saline containing Tween 20. A single concentration of a variety of fragments of human Aβ or mouse Aβ 1-40 (BioSource International) was used.

For assay [2], the target named is T2, human amyloid beta fragment 1-20 (human, UniProt P05067 672-691).
T2 construct: range 1-20; also called human Aβ 1-20
T2 peptide (looked up): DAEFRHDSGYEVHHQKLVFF
Briefly: BIAcore, single concentration of peptide.
Description: as §1

Another assay addresses T3, human Aβ fragment 10-20 (human, UniProt P05067 681-691).
T3 construct: range 10-20; also called human amyloid beta 10-20
T3 peptide (looked up): YEVHHQKLVFF
Briefly: BIAcore, single concentration of peptide.

A further assay concerns the target T4, human Aβ fragment 16-25 (human, UniProt P05067 687-696).
T4 construct: range 16-25; also called human amyloid beta 16-25
T4 peptide (looked up): KLVFFAEDVG
Description: BIAcore, single concentration of peptide.

In another assay the target is T5, mouse Aβ 1-40 (mouse, UniProt P12023 672-711).
T5 construct: range 1-40; The range counts on the Aβ peptide, not on the mouse APP precursor
T5 peptide (looked up): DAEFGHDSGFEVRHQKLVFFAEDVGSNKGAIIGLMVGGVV
Description: BIAcore, single concentration of peptide.

The target of a further assay is T6, Amyloid-beta 1-40 (UniProt P05067 672-711).
T6 construct: range 1-40; The range 1-40 counts on the Aβ peptide, not on the APP precursor; also called Aβ 1-40
Briefly: BIAcore 2000 SPR; antibody captured by anti-human Ig, Aβ flowed over; Aβ 1-40; monophasic.

The target in assay [3] is T7, β-amyloid peptide (1-42) (UniProt P05067 672-713).
T7 construct: range 1-42; The range 1-42 counts on the Aβ peptide, not on the APP precursor; also called Aβ 1-42; Amyloid-beta 1-42
Briefly: BIAcore 2000 SPR; antibody captured, Aβ flowed over; biphasic, first affinity; Aβ 1-42; biphasic, high-affinity component.
Description: (§2) Antibody affinity (KD=Kd/Ka) was determined using a BIAcore biosensor 2000 and data analyzed with BIAevaluation (v. 3.1) software. A capture antibody (rabbit anti-mouse Ig or anti-human Ig) was coupled via free amine groups to carboxyl groups on flow cell 2 of a biosensor chip (CM5) using N-ethyl-N-dimethylaminopropyl carbodiimide and N-hydroxysuccinimide (EDC/NHS). A non-specific rabbit IgG was coupled to flow cell 1 as a background control. Monoclonal antibodies were captured to yield 300 resonance units (RU). […] To regenerate the chip, bound anti-Aβ antibody was eluted from the chip using a wash with glycine-HCl (pH 2). A control injection containing no amyloid-beta served as a control for baseline subtraction.

Assay [4] has as its target T7, β-amyloid peptide (1-42). Briefly: BIAcore 2000 SPR; antibody captured, Aβ flowed over; biphasic, second affinity; Aβ 1-42; biphasic, low-affinity component.
Description: as §2
Assay [5] has as its target T7, β-amyloid peptide (1-42). Briefly: competitive ELISA on coated Aβ 1-42 against biotinylated Mu10D5; mean of three experiments (SD 0.6 µg/mL), second set; second set of three experiments (SD 0.6 µg/mL).
Description: (§3) After washing the wells with phosphate buffered saline (PBS) containing 0.1% Tween 20 (Washing Buffer) using an ELISA plate washer, the wells were blocked by adding 300 μL of SuperBlock reagent (Pierce) per well. After 30 minutes of blocking, the wells were washed with Washing Buffer and excess liquid was removed.
(§4) As a background control, 100 μl of ELISA Buffer was added. The ELISA plate was incubated at room temperature for 90 min. […] The plate was incubated at room temperature for 30 min and washed with Washing Buffer. For color development, 100 μl/well of ABTS Peroxidase Substrate (Kirkegaard & Perry Laboratories) was added. Color development was stopped by adding 100 μl/well of 2% oxalic acid. […] The absorbances were plotted against the log of the competitor concentration, curves were fit to the data points (using Prism) and the IC50 was determined for each antibody using methods well-known in the art.
In assay [6] the target is T7, β-amyloid peptide (1-42). Briefly: competitive ELISA on coated Aβ 1-42 against biotinylated Mu10D5; mean of three experiments (SD 11.8 µg/mL), first set; first set of three experiments (SD 11.8 µg/mL).
Description: as §3, §4

Description for Amyloid-beta 1-40: as §2
Description for human Aβ fragment 10-20: as §1
Description for human Aβ fragment 16-25: as §1
Description for mouse Aβ 1-40: as §1

B1: humanized 10D5 antibody (antibody, human IgG1, kappa, V domains shown)
VH: QVTLKESGPVLVKPTETLTLTCTFSGFSLSTSGMGVSWIRQPPGKALEWLAHIYWDDDKRYNPSLKSRLTISKDTSKSQVVLTMTNMDPVDTATYYCVRRPITPVLVDAMDYWGQGTLVTVSS
VL: DVVMTQSPLSLPVTLGQPASISCRSSQNIIHSNGNTYLEWYLQKPGQSPRLLIYKVSNRFSGVPDRFSGSGSGTDFTLKISRVEAEDVGVYYCFQGSHVPLTFGGGTKVEIKR
notes: also called Hu10D5
B1: the binding result was “binds” in [1]; “binds” in assay [2]; “no binding” with human Aβ fragment 10-20; “no binding” with human Aβ fragment 16-25; “no binding” in the assay with mouse Aβ 1-40. The Kd stood at 209 nM with Amyloid-beta 1-40, 0.19 nM with β-amyloid peptide (1-42) [3] and 1020 nM with β-amyloid peptide (1-42) [4]. Further, the IC50 with β-amyloid peptide (1-42) [5] worked out at 16 µg/mL; in the assay with β-amyloid peptide (1-42) [6], 49.1 µg/mL.

Values taken from US20050142131A1 (Eli Lilly, published 2005).
